In patent US20250270343A1 (Alector, published 2025):

Target: T1, full-length untagged human GPNMB expressed on cells (human, UniProt Q14956 23-572)
T1 construct: also used here for GPNMB on human monocyte-derived macrophages in the functional assays; also called huGPNMB; Freestyle293-huGPNMB+
T1 sequence: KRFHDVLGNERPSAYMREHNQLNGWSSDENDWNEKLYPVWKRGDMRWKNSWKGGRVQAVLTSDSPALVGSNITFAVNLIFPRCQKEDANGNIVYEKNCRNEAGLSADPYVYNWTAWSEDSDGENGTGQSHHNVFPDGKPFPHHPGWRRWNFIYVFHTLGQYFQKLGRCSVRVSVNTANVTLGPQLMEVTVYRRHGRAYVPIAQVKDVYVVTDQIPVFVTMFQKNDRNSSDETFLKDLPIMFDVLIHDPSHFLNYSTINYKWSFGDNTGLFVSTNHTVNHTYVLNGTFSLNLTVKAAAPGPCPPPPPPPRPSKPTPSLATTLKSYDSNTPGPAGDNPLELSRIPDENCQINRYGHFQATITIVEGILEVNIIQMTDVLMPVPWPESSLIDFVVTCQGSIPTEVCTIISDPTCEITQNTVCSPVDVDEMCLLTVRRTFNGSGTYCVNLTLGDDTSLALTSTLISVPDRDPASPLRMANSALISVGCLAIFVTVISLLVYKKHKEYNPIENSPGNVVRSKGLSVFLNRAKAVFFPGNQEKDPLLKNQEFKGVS
Assay: FACS, FS293-huGPNMB+ cells; single-point FACS staining of Freestyle293-huGPNMB+ cells; weak signal, 1.5-fold over background

B1: anti-GPNMB antibody GPN-43 (antibody, human IgG1, V domains shown)
VH: EVQLQQSGPELVKPGASVKISCKASGYTFTDYYMNWVRQSHGKSLEWIGDINPYHGGSTYNQKIKVKATLTVDKSSSTAYMELRSLTSEDSAVYYCARNWPYFDYWGQGTTLTVSS
VL: DIQMTQSPASLSASVGETVTITCRASENIYSFLVWYQQKQGKSPQLLVYNAKTLAEGVPSRFSGSGSGTQFSLKISSLQPEDFGSYYCQHHFGTPPYTFGGGTKLEIK
notes: chimeric
For B1, which “MFI fold over background” value is on record?
The value was 1.5 fold.
